“And” between values parts separate entries of the source, which are not always exact repeats. Equal values may be shown once. “Also recorded” adds a separate entry of the source.
Legend:
[1] = system: Ba/F3 cells expressing the wtEGFR; assay: MTT proliferation assay with EGF; format: cell-based, murine; settings: antibody 10 μg/ml
Procedure: Cells growing in log phase were harvested and washed twice with PBS to remove residual IL-3. […] Proliferation was determined using the MTT assay (van de Loosdrecht et al. (1994) J. Immunol. Methods. 174, 311-320).

[2] = biological target: T1, denatured soluble domain of the EGFR (sEGFR) (Homo sapiens, UniProt P00533); assay: competition ELISA with biotinylated mAb806; format: binding; settings: after unlabeled blocking antibody
T1 construct: sEGFR is the recombinant extracellular domain (amino acids 1-621) of the wild-type EGFR); host or cells: CHO cells
Procedure: Briefly, the denatured soluble domain of the EGFR (sEGFR) was coated on to ELISA plates. The unlabeled 124 or 1133 antibodies were then added across the plate in increasing concentrations.

[3] = biological target: T2, EGFR from U87MG.wtEGFR and A431 cells (Homo sapiens, UniProt P00533); assay: immunoprecipitation and Endo H digestion; format: binding; settings: majority / bulk of the material
T2 construct: endogenous in cells; host or cells: A431 (endogenous, amplified gene) and U87MG.wtEGFR (U87MG transfected with wtEGFR)
Procedure: This possibility was tested by immunoprecipitating the EGFR from different cells lines labelled overnight with ^35S methionine/cysteine and then subjecting the resultant precipitates to Endoglycosidase H (Endo H) digestion. This enzyme preferentially removes high mannose type carbohydrates (i.e. immature glycosylation) from proteins while leaving complex carbohydrates (i.e. mature glycosylation) intact.

HN5 and MDA-468 cells = assay: binding to cell lines by FACS; design: species or system human; settings: HN5 and MDA-468, both cell lines
[4] = biological target: T3, sEGFR (recombinant extracellular domain of the wild-type EGFR) (Homo sapiens, UniProt P00533); assay: ELISA on sEGFR coated plates; format: binding
T3 construct: sEGFR is the recombinant extracellular domain (amino acids 1-621) of the wild-type EGFR); host or cells: CHO cells
Procedure: Two types of ELISA were used to determine the specificity of the antibodies. […] Growth Factors. 18, 11-29). Antibodies were added to wells in triplicate at increasing concentration in 2% HSA in phosphate-buffered saline (PBS).

denaturated sEGFR = biological target: T4, denaturated sEGFR (Homo sapiens, UniProt P00533); assay: BIAcore with immobilized sEGFR; format: binding
T4 construct: sEGFR is the recombinant extracellular domain (amino acids 1-621) of the wild-type EGFR); host or cells: CHO cells
Procedure: In a second set of BIAcore experiments, sEGFR was immobilized on a CM microsensor chip at a surface density of ˜4000RU. Serial dilutions of mAbs were tested for reactivity with sEGFR.

U87MG cells = assay: binding to cell lines by FACS; design: species or system human; settings: parental U87MG
Procedure: (§1) Briefly, cells were labelled with the relevant antibody (10 μg/ml) followed by fluorescein-conjugated goat anti-mouse IgG (1:100 dilution; Calbiochem San Diego, Calif., USA; Becton-Dickinson PharMingen, San Diego, Calif., US) as described previously (Nishikawa et al., 1994). FACS data was obtained on a Coulter Epics Elite ESP by observing a minimum of 5,000 events and analyzed using EXPO (version 2) for Windows.
(§2) Stained cells were analyzed with a FACS Calibur using Cell Quest software (Becton-Dickinson PharMingen). […] 1. Mouse IgG2a or IgG2b was used as an isotype control.
(§3) Cell lines and antibodies were prepared as described in Example 1. […] Cells (1 3 10 6) were incubated with 5 μg/ml of the appropriate antibody or an isotype-matched negative control in PBS containing 1% HSA for 30 min at 4° C. After three washes with PBS/1% HSA, cells were incubated an additional 30 min at 4° C. with FTTC-coupled goat anti-mouse antibody (1:100 dilution; Calbiochem, San Diego, Calif.). After three subsequent washes, cells were analyzed on an Epics Elite ESP (Beckman Coulter, Hialeah, Fla.) by observing a minimum of 20,000 events and analyzed using EXPO (version 2) for Windows.

U87MG.wtEGFR cells = assay: binding to cell lines by FACS; design: species or system human
Procedure: as §1, §2, §3

DU145 xenografts = assay: s.c. xenograft therapy study; format: in vivo, nude mice; settings: day 67; 1 mg i.p.; control 1145
EGFR of A431 cells = biological target: T5, EGFR of A431 cells (Homo sapiens, UniProt P00533); assay: ELISA of 806 reactivity in A431 lysate with AG1478; format: cell-based; settings: AG1478 0.5 μM and 5 μM, 10 min at 37° C.
T5 construct: endogenous in cells; host or cells: A431 human squamous carcinoma cells
Procedure: Cells were placed in serum free media overnight, then treated with AG1478 for 10 min at 37° C., washed twice in PBS, then lysed in 1% Triton and lysates prepared by centrifugation for 10 min at 12,000 g. […] Plates were then blocked with 10% serum albumin/PBS for 2 hours at 37° C. and washed twice. A 1:20 cell lysate was added in 10% serum albumin/PBS for 1 hour at 37° C., then washed four times. Anti-EGFR(SC-03; Santa Cruz Biotechnology Inc.) in 10% serum albumin/PBS was reacted 90 min at room temperature, the plate washed four times, and anti-rabbit-HRP (1:2000 if from Silenus) in 10% serum albumin/PBS was added for 90 min at room temperature, washed four times, and color developed using ABTS as a substrate.

[5] = system: U87MG.wtEGFR brain xenografts; assay: intracranial glioma xenograft treatment; format: in vivo, nude mice; settings: i.p. day 0 through 14
U87MG.wtEGFR xenografts = assay: s.c. xenograft therapy study; format: in vivo, nude mice; settings: established model; day control animals were sacrificed; 1 mg injections
Procedure: (§4) Tumor cells (3×10^6) in […] of PBS were inoculated subcutaneously into both flanks of 4-6 week old female nude mice (Animal Research Centre, Western Australia, Australia). […] Treatment was continued for a total of 6 doses, 3 times per week for 2 weeks. In the established model, treatment was started when tumors had reached a mean volume of 65±6.42 mm^3 (U87MG.Δ2-7), 84±9.07 mm3 (U87MG), 73±7.5 mm^3 (U87MG.wtEGFR) or 201±19.09 mm^3 (A431 tumors). Tumor volume in mm^3 was determined using the formula […], where length was the longest axis and width the measurement at right angles to the length (Clark et al. (2000) Therapeutic efficacy of anti-Lewis (y) humanized 3S 193 radioimmunotherapy in a breast cancer model: enhanced activity when combined with Taxol chemotherapy. Clin. Cancer Res. 6, 3621-3628). Data was expressed as mean tumor volume±S.E. for each treatment group. Statistical analysis was performed at given time points using Student's t-test. Animals were euthanized when the xenografts reached an approximate volume of 1.5 cm^3 and the tumors excised for histological examination. This research project was approved by the Animal Ethics Committee of the Austin and Repatriation Medical Centre.

U87MG xenografts = assay: s.c. xenograft therapy study; format: in vivo, nude mice; settings: 1 mg per injection
Procedure: as §4

B1: mAb806: murine IgG2b monoclonal antibody, clone 806, ATCC PTA-3858; VH SEQ ID NO:2, VL SEQ ID NO:4 (antibody, listed as Mus musculus, V domains shown)
VH: MRVLILLWLFTAFPGVLSDVQLQESGPSLVKPSQSLSLTCTVTGYSITSDFAWNWIRQFPGNKLEWMGYISYSGNTRYNPSLKSRISITRDTSKNQFFLQLNSVTIEDTATYYCVTAGRGFPYWGQGTLVTVSA
VL: MVSTAQFLAFLLLWFPGARCDILMTQSPSSMSVSLGDTVSITCHSSQDINSNIGWLQQRPGKSFKGLIYHGTNLDDEVPSRFSGSGSGADYSLTISSLESEDFADYYCVQYAQFPWTFGGGTKLEIKR
- effect on EGF-induced proliferation [1]: no effect
- Binding of biotin-labeled 806 [2]: None
- Endo H sensitivity of the precipitated EGFR [3]: sensitive to Endo H
- FACS staining (HN5 and MDA-468 cells): clearly stained
- inhibition of binding to immobilized sEGFR by sEGFR in solution ([4]; ELISA): unable to inhibit
- binding to immobilized wild-type sEGFR ([4]; ELISA, up to 10 μg/ml): dose-dependent and saturating binding curves
- inhibition of binding to immobilized sEGFR by denatured sEGFR in solution ([4]; sEGFR heated 10 min at 95° C.): able to inhibit
- reactivity with denaturated sEGFR (denaturated sEGFR): strongly reactive
- FACS staining (U87MG cells): binding levels similar to the control antibody; also recorded: not with U87MG cells
- FACS staining (U87MG.wtEGFR cells): stained; also recorded: reacted weakly
- mean tumor volume (DU145 xenografts): 605 mm^3
- mAb806 binding in the presence of increasing amounts of AG1478 (EGFR of A431 cells): significantly increased
- median survival [5]: 23 days
- mean tumor volume (U87MG.wtEGFR xenografts): 468±78.38 mm^3 and 500±80 mm^3
- effect on xenograft growth (U87MG xenografts; established model): no effect
- effect on xenograft growth (U87MG xenografts; preventative model): no effect

Reference: US20110293511A1, “SPECIFIC BINDING PROTEINS AND USES THEREOF” (priority 2009, published 2011)
